From the Immune Epitope Database (IEDB)

Legend:
HLA-B*57:01 = experiment: IEDB peptide-MHC binding, purified MHC/direct/fluorescence; filed as Kd, often an IC50 or EC50 that approximates it; ≥ and ≤ were set here for values at or beyond the usual limits of such assays
HLA-B*15:17 = experiment: as above
HLA-B*58:01 = experiment: as above
HLA-B*51:01 = experiment: as above; conditions: source organism: Listeria monocytogenes
HLA-B*15:01 = experiment: as above; conditions: source organism: Listeria monocytogenes serotype 4b str. H7858
HLA-B*07:02 = experiment: as above
HLA-A*01:01 = experiment: as above
HLA-B*15:42 = experiment: IEDB peptide-MHC binding, purified MHC/competitive/fluorescence; filed as Kd, often an IC50 or EC50 that approximates it; ≥ and ≤ were set here for values at or beyond the usual limits of such assays
HLA-B*45:06 = experiment: as above
HLA-B*83:01 = experiment: as above
HLA-A*69:01 = experiment: IEDB peptide-MHC binding, purified MHC/direct/fluorescence; filed as Kd, often an IC50 or EC50 that approximates it; ≥ and ≤ were set here for values at or beyond the usual limits of such assays
HLA-A*11:01 = experiment: as above
HLA-B*40:01 = experiment: as above
HLA-B*18:01 = experiment: as above; conditions: source organism: Mammarenavirus lassaense
HLA-A*02:16 = experiment: as above; conditions: source organism: Listeria monocytogenes serotype 4b str. H7858
HLA-A*02:12 = experiment: as above; conditions: source organism: Listeria monocytogenes serotype 4b str. H7858
HLA-A*02:01 = experiment: as above
HLA-B*27:05 = experiment: as above; conditions: source organism: Mammarenavirus juninense
HLA-B*44:02 = experiment: as above; conditions: source organism: Mammarenavirus juninense
HLA-A*03:01 = experiment: as above; conditions: source organism: Mammarenavirus juninense
HLA-B*46:01 = experiment: as above; conditions: source organism: Mammarenavirus juninense
HLA-A*31:01 = experiment: as above; conditions: source organism: Mammarenavirus juninense
HLA-B*08:01 = experiment: as above; conditions: source organism: Mammarenavirus juninense
[1] = source organism: Bacillus cytotoxicus
[2] = source organism: Mammarenavirus lassaense
[3] = source organism: Listeria monocytogenes
[4] = source organism: Yaba-like disease virus
[5] = source organism: Orthohantavirus dobravaense
[6] = source organism: Human immunodeficiency virus 1
[7] = source organism: Mammarenavirus juninense

## KTMMQAHDL
HLA-B*57:01; source organism: Bacillus cereus AH1134
  Kd: 0.12 µM
HLA-B*15:17; [1]
  Kd: 0.226 µM
HLA-B*58:01; [1]
  Kd: 0.0759 µM

## LSVSSRCPI
HLA-B*57:01; [2]
  Kd: 1.17 µM
HLA-B*15:17; [2]
  Kd: 0.0041 µM
HLA-B*58:01; [2]
  Kd: 0.139 µM

## MAMLADYFY
HLA-B*51:01
  Kd: ≥ 20 µM
HLA-B*15:01
  Kd: 0.012 µM
HLA-B*07:02; [3]
  Kd: ≥ 20 µM

## NTDNKFISY
HLA-A*01:01; source organism: Camelpox virus M-96
  Kd: ≤ 0.001 µM
HLA-B*15:42; [4]
  Kd: ≥ 5 µM
HLA-B*45:06; [4]
  Kd: ≥ 5 µM
HLA-B*83:01; [4]
  Kd: ≥ 5 µM

## QTSSIEGAW
HLA-B*57:01; [5]
  Kd: ≥ 20 µM
HLA-B*15:17; [5]
  Kd: 5.78 µM
HLA-B*58:01; [5]
  Kd: ≥ 20 µM

## RPMTYKAAL
HLA-A*69:01; [6]
  Kd: 11 µM
HLA-A*11:01; [6]
  Kd: 17.6 µM
HLA-B*07:02; [6]
  Kd: 0.0396 µM
HLA-B*15:42; [6]
  Kd: ≥ 5 µM
HLA-B*45:06; [6]
  Kd: ≥ 5 µM
HLA-B*83:01; [6]
  Kd: 0.0987 µM

## SERFINYAI
HLA-B*40:01; [2]
  Kd: 0.0525 µM
HLA-B*18:01
  Kd: 0.033 µM
HLA-B*15:42; [2]
  Kd: ≥ 5 µM
HLA-B*45:06; [2]
  Kd: ≥ 5 µM
HLA-B*83:01; [2]
  Kd: ≥ 5 µM

## SQDEVLFLV
HLA-A*02:16
  Kd: ≤ 0.001 µM
HLA-A*02:12
  Kd: 0.004 µM
HLA-A*69:01; [3]
  Kd: 0.0353 µM
HLA-A*02:01; [3]
  Kd: 0.0045 µM

## YAKKFKTGM
HLA-B*27:05
  Kd: ≥ 20 µM
HLA-B*44:02
  Kd: ≥ 20 µM
HLA-B*57:01; [7]
  Kd: ≥ 20 µM
HLA-B*40:01; [7]
  Kd: ≥ 20 µM
HLA-A*03:01
  Kd: ≥ 20 µM
HLA-A*01:01; [7]
  Kd: ≥ 20 µM
HLA-B*58:01; [7]
  Kd: ≥ 20 µM
HLA-B*46:01
  Kd: ≥ 20 µM
HLA-A*31:01
  Kd: ≥ 20 µM
HLA-A*11:01; [7]
  Kd: ≥ 20 µM
HLA-A*02:01; [7]
  Kd: ≥ 20 µM
HLA-B*07:02; [7]
  Kd: ≥ 20 µM
HLA-B*08:01
  Kd: 0.417 µM
